Four molecules from patent US20260285998 (published 2026) can be followed below.

What all share (assay): FACS
In general terms: Flow cytometry measures light scatter and fluorescence of single cells or particles in a stream.

Experiment [1] deals with T1, human BCMA (cell surface) (human).
T1 chain: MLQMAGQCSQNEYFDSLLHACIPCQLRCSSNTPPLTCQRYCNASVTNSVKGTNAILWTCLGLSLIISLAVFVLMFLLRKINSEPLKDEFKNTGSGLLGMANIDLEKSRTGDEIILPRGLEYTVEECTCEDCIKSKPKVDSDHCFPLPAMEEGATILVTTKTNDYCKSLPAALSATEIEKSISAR

The target of experiment [2] is T2, human BCMA S30del (human).
T2 chain: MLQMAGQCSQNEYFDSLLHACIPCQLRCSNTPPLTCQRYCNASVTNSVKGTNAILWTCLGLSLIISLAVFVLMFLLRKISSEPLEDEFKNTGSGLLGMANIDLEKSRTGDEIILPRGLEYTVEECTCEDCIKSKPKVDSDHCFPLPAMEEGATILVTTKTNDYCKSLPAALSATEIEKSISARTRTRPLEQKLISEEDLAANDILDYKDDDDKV

The target in experiment [3] is T3, human BCMA R27P (human).
T3 chain: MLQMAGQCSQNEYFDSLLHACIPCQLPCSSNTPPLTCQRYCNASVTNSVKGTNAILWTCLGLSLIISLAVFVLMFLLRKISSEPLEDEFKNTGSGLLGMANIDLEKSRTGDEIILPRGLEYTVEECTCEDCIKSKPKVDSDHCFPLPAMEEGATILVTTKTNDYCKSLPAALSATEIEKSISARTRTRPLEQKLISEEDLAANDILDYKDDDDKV

B1: P1AG7400 BCMA arm (antibody, V domains shown)
VH: QVQLVQSGAEVKKPGASVKVSCKASGYTFTNYWMHWVRQAPGQGLEWMGIIHPNSGSTNYNEKFQGRVTMTRDTSTSTVYMELSSLRSEDTAVYYCARGIYDYPFAYWGQGTLVTVSS
VL: DIQMTQSPSSLSASVGDRVTITCRASESVSIHGTHLMHWYQQKPGKAPKLLIYAASSLQSGVPSRFSGSGSETDFTLTISSLQPEDFATYYCQQSIEDPYTFGGGTKVEIK
What is called EC50 is the concentration at which the effect is half-maximal. As to B1, in experiment [1], the midpoint of the response, the EC50, lay at 41.5 nM.

B2: P1AH1062 (5D5 LM4) BCMA arm (antibody)
chain 1: not shown
chain 2: EIVLTQSPGTLSLSPGERATLSCKASQDIDDAINWYQQKPGQAPRLLIYDASLRATGIPDRFSGSGSGTDFTLTISRLEPEDFAVYYCQQSLRTPITFGQGTKLEIKRTVAAPSVFIFPPSDEQLKSGTASVVCLLNNFYPREAKVQWKVDNALQSGNSQESVTEQDSKDSTYSLSSTLTLSKADYEKHKVYACEVTHQGLSSPVTKSFNRGEC
In the case of B2, it took 103 nM to reach a half-maximal effect in experiment [1] (EC50).

B3: Teclistamab BCMA arm (antibody, V domains shown)
VH: QLQLQESGPGLVKPSETLSLTCTVSGGSISSGSYFWGWIRQPPGKGLEWIGSIYYSGITYYNPSLKSRVTISVDTSKNQFSLKLSSVTAADTAVYYCARHDGAVAGLFDYWGQGTLVTVSS
VL: SYVLTQPPSVSVAPGQTARITCGGNNIGSKSVHWYQQPPGQAPVVVVYDDSDRPSGIPERFSGSNSGNTATLTISRVEAGDEAVYYCQVWDSSSDHVVFGGGTKLTVLG
For the molecule B3, the binding result in experiment [2] and in experiment [3] was “no binding” in each case.

B4: P1AG7422 BCMA arm (antibody, V domains shown)
VH: EVQLVESGGGLVKPGGSLRLSCAASGFTFSNAWMDWVRQAPGKGLEWIAQITAKSNNYATYYAAPVKGRFTISRDDSKNTLYLQMNSLKTEDTAVYYCTDDGYHWGQGTLVTVSS
VL: AIQMTQSPSSLSASVGDRVTITCRASEDIRNGLAWYQQKPGKAPKLLIYNANSLHTGVPSRFSGSGSGTDFTLTISSLQPEDFATYYCEDTSKYPYTFGQGTKLEIK
B4 had an EC50 in experiment [1] of 10.8 nM.
